This note sets out measurements from US6632627B2, “Glutamine: fructose-6-phosphate amidotransferase, its production and use” (Takeda Chemical Industries, Ltd., priority 1997, dated 2003).

The nature of this assay: Detection of GFAT activity of the proteins (HPLC detection of PITC-bound glucosamine-6-phosphate). To be noted: 1 μl recombinant protein in 100 μl reaction mixture; 6 mM glutamine, 10 mM fructose-6-phosphate; pH 7.5; room temperature, 5 hours. It is filed as biochemical. How it is done:
GFAT activity of the proteins: TGC028-3 and TGC028-4 was measured in the following manner. In a solution (0.1 M K2HP04, 50 mM KCl, 50 mM HEPES, 1 mM EDTA, 5 mM DTT, pH 7.5) were added glutamine and fructose-6-phosphate to final concentrations of 6 mM and 10 mM, respectively. Then, in 100 μl of this reaction mixture was added 1 μl of TGC028-3 or TGC028-4 protein, and the reaction mixture was incubated at room temperature for 5 hours. Thereafter, the reaction mixture was subjected to centrifugal filtration using a Ultrafree C3GC (cut-off molecular weight: 10,000; Millipore) and the filtrate obtained was mixed with an equal volume of a solution consisted of methanol, water, and triethylamine at the ratio of 2:2:1. After the mixture was dried in vacuo, the residue was dissolved in 20 μl of a mixed solution of methanol, water, and triethylamine-phenyl isothiocyanate (PITC) at the ratio of 7:1:1:1 and the reaction was carried out at room temperature for 20 minutes. […] Elution was carried out using a mobile phase comprising 232 mM sodium acetate, 0.1% triethylamine and 5% acetonitrile (pH 6.0) at a flow rate of 1 ml/minute and PITC-bound glucosamine-6-phosphate was detected at UV 254 nm.

B1: TGC028-3: human-derived protein having the amino acid sequence of SEQ ID NO:2 (615 residues), novel GFAT protein expressed in E. coli (protein)
chain: MCGIFAYMNYRVPRTRKEIFETLIKGLQRLEYRGYDSAGVAIDGNNHEVKERHIQLVKKRGKVKALDEELYKQDSMDLKVEFETHFGIAHTRWATHGVPSAVNSHPQRSDKGNEFVVIHNGIITNYKDLRKFLESKGYEFESETDTETIAKLIKYVFDNRETEDITFSTLVERVIQQLEGAFALVFKSVHYPGEAVATRRGSPLLIGVRSKYKLSTEQIPILYRTCTLENVKNICKTRMKRLDSSACLHAVGDKAVEFFFASDASAIIEHTNRVIFLEDDDIAAVADGKLSIHRVKRSASDDPSRAIQTLQMELQQIMKGNFSAFMQKEIFEQPESVFNTMRGRVNFETNTVLLGGLKDHLKEIRRCRRLIVIGCGTSYHAAVATRQVLEELTELPVMVELASDFLDRNTPVFRDDVCFFISQSGETADTLLALRYCKDRGALTVGVTNTVGSSISRETDCGVHINAGPEIGVASTKAYTSQFISLVMFGLMMSEDRISLQNRRQEIIRGLRSLPELIKEVLSLEEKIHDLALELYTQRSLLVMGRGYNYATCLEGALKIKEITYMHSEGILAGELKHGPLALIDKQMPVIMVIMKDPCFAKCQNALQQVTARQV
B1: the “GFAT activity: formation of glucosamine-6-phosphate (peak of PITC-bound glucosamine-6-phosphate by HPLC, UV 254 nm)” value is “a peak was confirmed at the position corresponding to PITC-bound glucosamine-6-phosphate”.

B2: TGC028-4: human-derived protein having the amino acid sequence of SEQ ID NO:3 (682 residues), constructed from TGC028-3 and a GFAT-like DNA fragment (protein)
chain: MCGIFAYMNYRVPRTRKEIFETLIKGLQRLEYRGYDSAGVAIDGNNHEVKERHIQLVKKRGKVKALDEELYKQDSMDLKVEFETHFGIAHTRWATHGVPSAVNSHPQRSDKGNEFVVIHNGIITNYKDLRKFLESKGYEFESETDTETIAKLIKYVFDNRETEDITFSTLVERVIQQLEGAFALVFKSVHYPGEAVATRRGSPLLIGVRSKYKLSTEQIPILYRTCTLENVKNICKTRMKRLDSSACLHAVGDKAVEFFFASDASAIIEHTNRVIFLEDDDIAAVADGKLSIHRVKRSASDDPSRAIQTLQMELQQIMKGNFSAFMQKEIFEQPESVFNTMRGRVNFETNTVLLGGLKDHLKEIRRCRRLIVIGCGTSYHAAVATRQVLEELTELPVMVELASDFLDRNTPVFRDDVCFFISQSGETADTLLALRYCKDRGALTVGVTNTVGSSISRETDCGVHINAGPEIGVASTKAYTSQFISLVMFGLMMSEDRISLQNRRQEIIRGLRSLPELIKEVLSLEEKIHDLALELYTQRSLLVMGRGYNYATCLEGALKIKEITYMHSEGILAGELKHGPLALIDKQMPVIMVIMKDPCFAKCQNALQQVTARQGRPIILCSKDDTESSKFAYKTIELPHTVDCLQGILSVIPLQLLSFHLAVLRGYDVDFPRNLAKSVTVE
On to B2, for which the “GFAT activity: formation of glucosamine-6-phosphate (peak of PITC-bound glucosamine-6-phosphate by HPLC, UV 254 nm)” value is “a peak was confirmed at the position corresponding to PITC-bound glucosamine-6-phosphate”.
